These results are taken from US20100285037A1 (ARCA BIOPHARMA, published 2010).

Assay [1] deals with T1, CLL-1-ECD-V5His recombinant protein (human, UniProt Q5QGZ9 67-265).
T1 construct: also called recombinant CLL-1 protein; CLL-1 V5-6His protein; not shown: C-terminal V5-His tag
T1 sequence: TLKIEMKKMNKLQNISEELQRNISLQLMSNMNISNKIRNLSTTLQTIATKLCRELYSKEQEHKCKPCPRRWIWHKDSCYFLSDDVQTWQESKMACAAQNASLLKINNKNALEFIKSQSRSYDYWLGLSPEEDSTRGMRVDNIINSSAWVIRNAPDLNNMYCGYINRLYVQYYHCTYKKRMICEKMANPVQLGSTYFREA
Put plainly: SPR (BIAcore), mAb captured via anti-mouse mAb, antigen in solution, 25° C.; KD = kd/ka. The protocol: (§1) Kinetic rate constants (kₐ and kd) were determined using surface plasmon resonance and affinities (KD) were then calculated from the rate constants (kd/kₐ). Surface plasmon resonance was carried out on a BlAcore system (Biacore International AB, Uppsala, Sweden). Chimeric monoclonal antibodies (21.16 or 1075.7) were diluted to 2 μg/ml and then captured on the biosensor surface using an anti-mouse mAb. Antigen was diluted to a starting concentration of 46 nM and tested for binding to the mAb samples using a 3-fold dilution series. Each of 5 concentrations was tested twice except the highest concentration which was tested 5 times in total, two times with a short dissociation of 300 seconds followed by three times with a dissociation of 60 minutes. The data sets from the long dissociation experiments were globally fit with the shorter association experiments to determine binding constants for the interactions. The analysis was carried out in HBS, pH 7.4 buffer at 25° C. (Canziani et al, Anal. Biochem. 352:301-307 (2004)).

For assay [2], the target named is T1, CLL-1-ECD-V5His recombinant protein. Briefly: SPR (BIAcore), mAb captured via anti-mouse mAb, antigen in solution, 25° C. The method, then: as §1
In assay [3] the target is T2, CLL-1 on cells (HEK293 cells stably transfected with CLL-1; HL-60 and other AML cells) (human, UniProt Q5QGZ9 1-265).
T2 sequence: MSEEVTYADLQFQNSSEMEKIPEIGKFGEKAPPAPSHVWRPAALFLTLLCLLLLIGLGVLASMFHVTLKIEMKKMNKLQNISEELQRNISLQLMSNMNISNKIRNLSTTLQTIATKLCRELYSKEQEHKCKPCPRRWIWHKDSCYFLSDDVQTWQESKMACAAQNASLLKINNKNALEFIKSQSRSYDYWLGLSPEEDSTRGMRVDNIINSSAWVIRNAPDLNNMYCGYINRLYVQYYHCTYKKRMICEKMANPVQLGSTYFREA
Briefly: cell-based or functional assay.

B1: chimeric anti-CLL-1 monoclonal antibody 1075.7 (antibody, human IgG1, V domains shown)
VH: DIQLQESGPGLVKPSQSLSLTCSVTGYSITSAYYWNWIRQFPGNKLEWMGYISYDGRNNYNPSLKNRISITRDTSKNQFFLKLNSVTTEDTATYYCAKEGDYDVGNYYAMDYWGQGTSVTVSS
VL: ENVLTQSPAIMSASPGEKVTMTCRASSNVISSYVHWYQQRSGASPKLWIYSTSNLASGVPARFSGSGSGTSYSLTISSVEAEDAATYYCQQYSGYPLTFGAGTKLELKR
notes: No cleavage site is stated; also called mAb 1075.7; clone #1075.7
With B1, the Kd in assay [1] was 0.36 nM. Moreover, in assay [2], the koff was 0.00015 s⁻¹ and the kon was 417000 M⁻¹ s⁻¹.

B2: chimeric anti-CLL-1 monoclonal antibody 21.16 (antibody, human IgG1, V domains shown)
VH: QVQLQQPGAELVKPGTSVKLSCKASGYTFTRYWMHWVKQRPGQGLEWIGMIHPSSGSTSYNEKVKNKATLTVDRSSTTAYMQLSSLTSEDSAVYYCARDGDYYYGTGDYWGQGTTLTVSS
VL: QIVLSQSPAILSASPGEKVTMTCRASSSINYMHWYQQKPGSSPKPWIFATSNLASGVPSRFSGSGSGTSYSLTISRVEAEDAATYYCQQWRSDRALTFGAGTKLELIR
notes: No cleavage site is stated; also called mAb 21.16; VL1VH1
Take B2: in assay [2], the kon is 554000 M⁻¹ s⁻¹. In assay [3], the “EC50 of complement-dependent cytotoxicity (CDC) on OCI-AML5 cells” value is about 0.0071 µg/mL; the “EC50 of ex vivo cytotoxicity on patient AML sample 'M1'” value amounted to 0.284 µg/mL; the “EC50 of ex vivo cytotoxicity on patient AML sample 'M5a'” value was found to be 0.146 µg/mL; the “complement-dependent cytotoxicity (CDC), EC50, HEK293 cells expressing CLL-1” value was about 0.088 µg/mL.
